Assays:
[1] = test system: Saccharomyces cerevisiae; test: protein stability index of tFT-peptide fusion in deletion strain of DAS1 (PSI (0-1 scale)); higher = more stable (slower turnover)
Method: (§1)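 MPS profiling in S. cerevisiae of two library types built from selected 12-aa C-degron peptides (IN1, IN2, LN1, LN3, VN2, R1-R5, W1-W3, Atg1 and Rpa12 C-termini): saturation mutagenesis libraries and C-terminal +1 capping libraries (13 aa). Each peptide is fused to the C-terminus of a sfGFP-mCherry timer, after a GGGS linker. Cells are FACS-sorted into 8 mCherry/sfGFP bins and sequenced. PSI runs from 0 (unstable) to 1 (stable), measured once in wild type and in the das1Δ or doa10Δ background.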

[2] = test system: Saccharomyces cerevisiae; test: protein stability index of tFT-peptide fusion in wild type (PSI (0-1 scale)); higher = more stable (slower turnover); conditions: genetic background: wild type
Method: as §1
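Throughout, for protein stability index of tFT-peptide fusion in deletion strain of DAS1: PSI is a weighted mean of each variant's read distribution over the sorted stability bins, computed only for variants having over 10 reads in total.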
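Throughout, for protein stability index of tFT-peptide fusion in wild type: PSI derived as read-weighted mean over the 8 sorting bins, only variants exceeding 10 total reads kept, mCherry placed adjacent to the peptide and sfGFP distal.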

Row | Sequence | protein stability index [1] | protein stability index [2]
1 | ARWRVVLWRGAS | 0.621 | 0.517
2 | CHSCGYKFRTNN | 0.715 | 0.212
3 | CNSCGYKFRTNN | 0.702 | 0.193
4 | CQSCGYKFRTNN | 0.7 | 0.248
5 | CRWRVGLWRGAS | 0.697 | 0.276
6 | CSMRWTFRYWVN | 0.573 | 0.0623
7 | CTLCGYKFRTNN | 0.72 | 0.278
8 | CTSCGEKFRTNN | 0.666 | 0.523
9 | CTSCGIKFRTNN | 0.688 | 0.376
10 | CTSCGPKFRTNN | 0.674 | 0.598
11 | CTSCGYKDRTNN | 0.702 | 0.634
12 | CTSCGYKFGTNN | 0.693 | 0.688
13 | CTSCGYKFRPNN | 0.714 | 0.727
14 | CTSCGYKFRTLN | 0.696 | 0.132
15 | CTSCGYKFRTNL | 0.703 | 0.652
16 | CTSCGYKFRTNNC | 0.673 | 0.708
17 | CTSCGYKFRTNNT | 0.689 | 0.692
18 | CTSCGYKFVTNN | 0.692 | 0.495
19 | CTSCGYKTRTNN | 0.679 | 0.632
20 | CTSCGYKVRTNN | 0.693 | 0.388
21 | CTSCGYLFRTNN | 0.698 | 0.348
22 | CTSCGYYFRTNN | 0.697 | 0.283
23 | CTSCLYKFRTNN | 0.675 | 0.185

Row | Sequence | protein stability index [1] | protein stability index [2]
24 | CTSGGYKFRTNN | 0.673 | 0.551
25 | CTSNGYKFRTNN | 0.674 | 0.381
26 | CTSWGYKFRTNN | 0.744 | 0.137
27 | CTWCGYKFRTNN | 0.685 | 0.224
28 | DKILRQKMNHQN | 0.672 | 0.121
29 | ERGAVGGWRLVG | 0.675 | 0.168
30 | ESMRWTFRYWVN | 0.56 | 0.0849
31 | FSGRWTFRYWVN | 0.626 | 0.0867
32 | FSMRGTFRYWVN | 0.608 | 0.106
33 | FSMRHTFRYWVN | 0.588 | 0.0782
34 | FSMRQTFRYWVN | 0.558 | 0.0909
35 | FSMRWKFRYWVN | 0.577 | 0.0643
36 | FSMRWTARYWVN | 0.513 | 0.0802
37 | FSMRWTFRKWVN | 0.634 | 0.314
38 | FSMRWTFRYCVN | 0.492 | 0.088
39 | FSMRWTFRYMVN | 0.577 | 0.0804
40 | FSMRWTFRYWLN | 0.486 | 0.0521
41 | FSMRWTFRYWMN | 0.485 | 0.07
42 | FSMRWTFRYWSN | 0.538 | 0.313
43 | FSMRWTFRYWVE | 0.473 | 0.502
44 | FSMRWTFRYWVG | 0.476 | 0.422
45 | FSMRWTFRYWVNC | 0.508 | 0.114
46 | FSMRWTFRYWVNI | 0.527 | 0.134

Row | Sequence | protein stability index [1] | protein stability index [2]
47 | FSMRWTFRYWVT | 0.469 | 0.225
48 | FSMRWTFRYWYN | 0.48 | 0.149
49 | FSMRWTFYYWVN | 0.418 | 0.0564
50 | FSMRWTWRYWVN | 0.625 | 0.0598
51 | FSPRWTFRYWVN | 0.59 | 0.075
52 | FSSRWTFRYWVN | 0.604 | 0.1
53 | FVVYLSCVACIN | 0.0242 | 0.0218
54 | FWMRWTFRYWVN | 0.379 | 0.0402
55 | HSMRWTFRYWVN | 0.586 | 0.0543
56 | HVVYLSCVACIN | 0.0397 | 0.0139
57 | IKILRQKMNHQN | 0.659 | 0.177
58 | KKEKKGQKQKIN | 0.578 | 0.0774
59 | KKFKKGQKQKIN | 0.575 | 0.129
60 | KKHKCGQKQKIN | 0.582 | 0.0807
61 | KKHKKAQKQKIN | 0.601 | 0.06
62 | KKHKKCQKQKIN | 0.548 | 0.0395
63 | KKHKKGQKAKIN | 0.611 | 0.241
64 | KKHKKGQKGKIN | 0.584 | 0.563
65 | KKHKKGQKKKIN | 0.576 | 0.523
66 | KKHKKGQKMKIN | 0.583 | 0.105
67 | KKHKKGQKQIIN | 0.584 | 0.642
68 | KKHKKGQKQKIH | 0.662 | 0.114
69 | KKHKKGQKQKINN | 0.659 | 0.231

Row | Sequence | protein stability index [1] | protein stability index [2]
70 | KKHKKGQKQKINP | 0.663 | 0.658
71 | KKHKKGQKQKINQ | 0.664 | 0.644
72 | KKHKKGQKQKINR | 0.657 | 0.644
73 | KKHKKGQKQKIP | 0.638 | 0.336
74 | KKHKKGQKQKQN | 0.583 | 0.264
75 | KKHKKGQKTKIN | 0.619 | 0.435
76 | KKHKKGQYQKIN | 0.569 | 0.0851
77 | KKHMKGQKQKIN | 0.551 | 0.103
78 | KKHRKGQKQKIN | 0.678 | 0.109
79 | KKHTKGQKQKIN | 0.622 | 0.129
80 | KSLAASFWRVVG | 0.673 | 0.112
81 | LDVYLSCVACIN | 0.231 | 0.134
82 | LKALRQKMNHQN | 0.672 | 0.213
83 | LKFLRQKMNHQN | 0.697 | 0.166
84 | LKHKKGQKQKIN | 0.576 | 0.094
85 | LKICRQKMNHQN | 0.722 | 0.254
86 | LKIFRQKMNHQN | 0.669 | 0.191
87 | LKIHRQKMNHQN | 0.673 | 0.226
88 | LKIIRQKMNHQN | 0.718 | 0.204
89 | LKILFQKMNHQN | 0.688 | 0.267

Source: the supplement of paper PMC10724198
